No end group written: not given here.
T1: peptide A20 of the second library (aa 12-20, F20 to alanine) (also: biotinylated, position not given here)
T1 peptide: VHHQKLVFA

T2: peptide A17 of the second library (aa 12-20, L17 to alanine) (also: biotinylated, position not given here)
T2 peptide: VHHQKAVFF

T3: peptide 15 of the first library (aa 15-23 of Aβ) (also: biotinylated, position not given here)
T3 construct: also called p15-23
T3 peptide: QKLVFFAED

T4: peptide 14 of the first library (aa 14-22 of Aβ) (also: biotinylated, position not given here)
T4 construct: also called p14-22
T4 peptide: HQKLVFFAE

T5: peptide 13 of the first library (aa 13-21 of Aβ) (also: biotinylated, position not given here)
T5 construct: also called p13-21; Amyloid beta 13-21
T5 peptide: HHQKLVFFA

T6: peptide 12 of the first library (aa 12-20 of Aβ) (also: biotinylated, position not given here)
T6 construct: also called p12-20; Aβ12-20
T6 peptide: VHHQKLVFF

B1: humanized anti-human amyloid beta monoclonal antibody hC2 (antibody, human IgG4 S228P, kappa, V domains shown)
VH: EVQLVESGGGLVQPGGSLRLSCAASGFTFSSYGMSWVRQAPGKGLELVASINSNGGSTYYPDSVKGRFTISRDNAKNSLYLQMNSLRAEDTAVYYCASGDYWGQGTTVTVSS
VL: DIVMTQSPLSLPVTPGEPASISCRSSQSLVYSNGDTYLHWYLQKPGQSPQLLIYKVSNRFSGVPDRFSGSGSGTDFTLKISRVEAEDVGVYYCSQSTHVPWTFGQGTKVEIKR
notes: also called humanized antibody C2; humanized C2
B2: mouse monoclonal antibody ACI-01-Ab7C2 (antibody, V domains shown)
VH: EVQLVESGGGLVQPGGSLKLSCAASGFTFSSYGMSWVRQTPDKRLELVASINSNGGSTYYPDSVKGRFTISRDNAKNTLYLQMSSLKSEDTAMYYCASGDYWGQGSTLTVSS
VL: DVVMTQTPLSLPVSLGDQASISCRSSQSLVYSNGDTYLHWYLQKPGQSPKLLIYKVSNRFSGVPDRFSGSGSGTDFTLKISRVEAEDLGVYFCSQSTHVPWTFGGGTKLEIK
notes: also called mC2; mACI-01-Ab7 C2

How the values were obtained:
[1] = target: T1, peptide A20 of the second library (aa …); assay: ELISA, biotinylated alanine-substituted peptides on streptavidin plate, O.D. 405 nm [middle chart, Figure 2]
From the text: (§1) One library comprised a total of 33 biotinylated peptides covering the complete amino acid (aa) sequence of Aβ1-42 (produced by Mimotopes and purchased from ANAWA Trading SA), the second library contains biotinylated peptides using peptide 12 (aa12-20 of Aβ) from the first peptide library and substituting each aa in the sequence by an alanine (see table 8 below), and the third library contains biotinylated peptides 13, 14, or 15 (aa 13-21, 14-22 or 15-23 of Aβ) and substituting in each case the last amino acids to an alanine or to a glycine for aa 21 which is already an alanine (see table 9 below). A biotinylated complete Aβ1-42 peptide was used as positive control (Bachem). Epitope mapping was done according to the manufacturer's (Mimotopes) instructions. Briefly, Streptavidin coated plates (NUNC) were blocked with 0.1% BSA in PBS overnight at 4° C. After washing with PBS-0.05% Tween 20, plates were coated for 1 hour at RT with the different peptides from the library, diluted in 0.1% BSA, 0.1% Sodium Azide in PBS to a final concentration of 10 μM. […] Plates were washed again and incubated with alkaline phosphatase conjugated goat anti human IgG for 1 h at RT.

[2] = target: T7, peptide A19 of the second library (aa 12-20, F19 to alanine) (biotinylated (position not given)); assay: as above
From the text: as §1

[3] = target: T8, peptide A16 of the second library (aa 12-20, K16 to alanine) (biotinylated (position not given)); assay: as above
From the text: as §1

[4] = target: T2, peptide A17 of the second library (aa …); assay: as above
From the text: as §1

[5] = target: T9, amyloid beta 1-42 monomers (UniProt P05067 672-713); assay: SPR (BIACORE), Aβ1-42 monomers immobilized on CM5 chip, antibody 0.05-1.0 µM
T9 construct: domain: amyloid beta 1-42; also called Aβ1-42 monomers; amyloid monomers
Experimental: BIACORE® technology utilizes changes in the refractive index at the surface layer upon binding of the antibody to the antigen immobilized on the layer. Binding is detected by surface plasmon resonance (SPR) of laser light refracting from the surface. Analysis of the signal kinetics on rate and off rate allows the discrimination between non-specific and specific interaction. The concentration of antibody used was in the range of 0.05 μM to 1.0 μM.

[6] = target: T3, peptide 15 of the first library (aa …); assay: ELISA on biotinylated peptides on streptavidin plates, antibody at 10 µg/ml
Experimental: (§2) Epitope mapping of the monoclonal antibody mACI-01-Ab7 C2 was performed by ELISA using three different peptide libraries. One library comprises a total of 33 biotinylated peptides covering the complete amino acid (aa) sequence of Aβ1-42 (produced by Mimotopes and purchased from ANAWA Trading SA), the second library contains biotinylated peptides using peptide 12 (aa12-20 of Aβ) from the first peptide library and substituting each amino acid in the sequence by an alanine (see […] below), and the third library contains biotinylated peptides 13, 14, or 15 (aa 13-21, 14-22 or 15-23 of Aβ) and substituting in each case the last amino acids to an alanine or to a glycine for aa 21 which is already an alanine (see table 5 below). A biotinylated complete Aβ1-42 peptide was used as positive control (Bachem). Epitope mapping was done according to the manufacturer's (Mimotopes) instructions. Briefly, Streptavidin coated plates (NUNC) were blocked with 0.1% BSA in PBS overnight at 4° C. After washing with PBS-0.05% Tween 20, plates were coated for 1 hour at RT with the different peptides from the library, diluted in 0.1% BSA, 0.1% Sodium Azide in PBS to a final concentration of 10 μM. After washing, plates were incubated for 1 hour at RT with the mACI-01-Ab7 C2 antibody or an isotype control mouse IgG2b antibody, diluted to 10 μg/ml in 2% BSA, 0.1% Sodium Azide in PBS. Plates were washed again and incubated with alkaline phosphatase conjugated goat anti mouse IgG for 1 h at RT.

[7] = target: T4, peptide 14 of the first library (aa …); assay: as above
Experimental: as §2

[8] = target: T5, peptide 13 of the first library (aa …); assay: as above
Experimental: as §2

[9] = target: T6, peptide 12 of the first library (aa …); assay: as above
Experimental: as §2

[10] = target: T1, peptide A20 of the second library (aa …); assay: ELISA on biotinylated peptides on streptavidin plates
Experimental: as §2

[11] = target: T7, peptide A19 of the second library (aa …); assay: as above
Experimental: as §2

[12] = target: T8, peptide A16 of the second library (aa …); assay: as above
Experimental: as §2

[13] = target: T2, peptide A17 of the second library (aa …); assay: as above
Experimental: as §2

T9 sequence (P05067 672-713 limits assumed): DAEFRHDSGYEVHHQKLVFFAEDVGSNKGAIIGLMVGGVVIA

Binder	binding result [1]	binding result [2]	binding result [3]	binding result [4]	Kd [5] [nM]	koff [5] [s⁻¹]	binding result [6]	binding result [7]	binding result [8]	binding result [9]	binding result [10]	binding result [11]	binding result [12]	binding result [13]
B1	no binding (tested: 200 ng/ml (single concentration))	no binding (tested: 200 ng/ml (single concentration))	no binding (tested: 200 ng/ml (single concentration))	no binding (tested: 200 ng/ml (single concentration))										
B2					150	0.0027	binds	binds	binds	binds	no binding (tested: 10 µg/ml)	no binding (tested: 10 µg/ml)	no binding (tested: 10 µg/ml)	no binding (tested: 10 µg/ml)

From patent publication US20100150906A1 (AC IMMUNE S A, published 2010)
